Results: patent US20160039867A1 (COMPLIX, published 2016)

B1: peptide Ac-MSIEEIQKQQAAIQKQIAAIQKQIYRMTP-NH2 (reference artificial peptide of Example 3) (peptide)
peptide: Ac-MSIEEIQKQQAAIQKQIAAIQKQIYRMTP-NH2
notes: Synthetic designed coiled coil-forming peptide; also called said synthesized peptide
B2: Q2aI peptide Ac-MSIEEIQKQIAAIQKQIAAIQKQIYRMTP-NH2 (peptide)
peptide: Ac-MSIEEIQKQIAAIQKQIAAIQKQIYRMTP-NH2
notes: Synthetic designed coiled coil-forming peptide; also called all-isoleucine core peptide

Key:
[1] = biological target: the molecule itself; experiment: CD thermal unfolding curve (222 nm, 292 microM peptide) fitted to a monomer-trimer equilibrium; self-association of the peptide
Protocol: The said synthesized peptide was dissolved at a concentration of 292 microM in 20 mM phosphate buffer (PBS), 150 mM NaCl, pH 7.2. The CD spectra were measured between […], at 5° C. and 90° C. (FIG. 3). The spectrum at 5° C. was indicative of a high alpha-helical secondary structure content, in agreement with the expectation that all heptad regions, but not all of the flanking residues, would assemble as alpha-helical coiled coils.
In order to analyze whether the temperature-induced transition between helical and non-helical states was reversible, a forward (up) and backward (down) thermal scan was performed on the same sample, by recording the CD signal at […] as a function of temperature at a scanning rate of about 1 degree Celsius per minute (FIG. 4). It was observed that the up and down scans almost perfectly coincided, thereby confirming the quantitative unfolding and refolding of the peptides in the sample.
FIG. 5 represents fitting of a theoretic equation for trimeric association to experimental data. The experimental data are taken from FIG. 4, curve labeled ‘UP’. The theoretic equations used are listed supra. The fitted parameters (fitting results) are listed at the right in FIG. 5. ‘Transit. T’ corresponds to Tₜ, but is expressed in degrees Celsius. The parameter ‘delta Cₚ’ was kept constant at 3.0 kJ mol⁻¹ K⁻¹. […]

[2] = biological target: the molecule itself; experiment: analytical sedimentation equilibrium ultracentrifugation, 25000 rpm, about 1 mg/ml; self-association of the peptide

Row | Protein | binding result [1] | binding result [2]
1 | B1 | binds | 
2 | B2 |  | binds
